Article PMC9080447 (Biochemistry, 2021)

Experiments:
Experiment in all cases: native MS
[1] = molecular target: His6-tagged Salmonella FrlB E224Q/H240N (Salmonella)
[2] = molecular target: wild-type Salmonella FrlB deglycase (Salmonella)
native MS = molecular target: the molecule itself

**Q.** “His6-tagged Salmonella FrlB E224Q/H240N (enzyme)” was tested. Which stoichiometry N [1] did it give?
**A.** Its stoichiometry N is 2.

**Q.** How did the stoichiometry N [2] turn out when “wild-type Salmonella FrlB deglycase (enzyme)” was run?
**A.** Its stoichiometry N is 2.

B1: His6-tagged Salmonella YidA (enzyme, UniProt A0A0F6B8Z9 1-281, looked up)
chain: MAIKLIAIDMDGTLLLPDHTISPAVKNAIAAAREKGVNVVLTTGRPYAGVHSYLKELHMEQPGDYCITYNGALVQKAGDGSTVAQTALSYDDYRYLEKLSREVGSHFHALDRNTLYTANRDISYYTVHESYVATIPLVFCEAEKMDPNTQFLKVMMIDEPAVLDRAIARIPAEVKEKYTVLKSAPYFLEILDKRVNKGTGVKSLVEALGIKPEEVMAIGDQENDIAMIEYAGMGVAMDNAIPSVKEVANFVTKSNLEDGVAWAIEKFVLNPDHSSGHFPAR
**Q.** Which “stoichiometry N” value (native MS) does the source give for B1 here?
**A.** Its value is 2.
